Experimental findings from a protein production outcome set (Wang et al. 2014) are described below.

The nature of the data set: label from the status in PepcDB records.

As to “MVVYPNEEAENGSLRFVDFVNKTFALLGNSPIKKFSLRHEPRLYCVDAYLRWIFTAMEQERGLLELHLYADRYYYPVGIERELFTSNTLVKLTLSGRYDFQVETVFLPALKSLSLSSSFEIGFDKYCNLLDGFPALEELYIREAVSELSNALLSSGTFVKCASIKRLVVFTDCPKFKEDEDHQEPCFIAPSLVYLDYSSYLSENYDLIDLNSLVEARLNLRLLESFNNYGSSDNDGDVYGWDFNVPFDYYGDVTNLVAGITNITTLHLSPDSLEVFHFRCKSIPVFNNLLLNLSIESNKRNGWQVMPLLIRSCPNLHTLVIKGFVHRVTSKCGDACACIPKKQRKIGKKEEISEYGGSFQELEQMRHFLGKLERLETVKVGVHAENNNNNEFLRANLLTLPRLSSKCNNIQFI”, the protein production result is recorded as “failed”.

With “MVWAPLGPPRTDCLTLLHTPSKDSPKMSLEWLVAWSWSLDGLRDCIATGIQSVRDCDTTAVITVACLLVLFVWYCYHVGREQPRPYVSVNSLMQAADANGLQNGYVYCQSPECVRCTHNEGLNQKLYHNLQEYAKRYSWSGMGRIHKGIREQGRYLNSRPSIQKPEVFFLPDLPTTPYFSRDAQKHDVEVLERNFQTILCEFETLYKAFSNCSLPQGWKMNSTPSGEWFTFYLVNQGVCVPRNCRKCPRTYRLLGSLRTCIGNNVFGNACISVLSPGTVITEHYGPTNIRIRCHLGLKTPNGCELVVGGEPQCWAEGRCLLFDDSFLHAAFHEGSAEDGPRVVFMVDLWHPNVAAAERQALDFIFAPGR”, the protein production entry is listed as “failed”. Then “MVWPFKSKFRKQIARIEITGAIASGTRKRVLEALKTVEERKFPALLLRIDSPGGTVGDSQEIYSALKRLREKIKIVASFGNISASGGVYIGMGAEHIMANPGTITGSIGVILRGNNLERLLDKIGVSFKVIKSGPYKDILSFDRELTEPEQDILQELIDTSYQQFVQTVAEGRSLAVDKVKSFADGRIFTGQQALELGVVDRLGTEEEARRWTAELVGLDPEKTPCYTLEERKPLLSRVLPGSRKGYSRLGASIDWLEFEMSTSGLPLWLYRP”, with “failed”. Then “MVYKPLEASDRTELRALQSDRLQRIVTHAHENVPFYREKLDAAGVSPEDIQSIDDITKLPMTTKEDFRDEYPDGLFAVDDEEVARIHASSGTTGKPKIVSYTDDDLDTWSEVVARSLAASGTEAGDTVQNAYGYGLFTGGLGIHYGTEELGASVVPIGSGQTQRQVELMTDLESDVFTCTPSYALYLAETAEEMGHDPRDLPISTIIFGAEPCTDPMREEIEERLGVDGIDIYGLSEIIGPGVSCECHEAKDGLHIWEDHFYPEVIDPHTKEPVEEGEEGELVLTTLTKEALPVFRYRTGDLTTLNYDECACGRTMVRMDNVTGRTDDLLIVRGVNLYPSEIEHAVLDIDGVAPHYRIDLYKEDNLDILELTIERTAEQGPGDKALEDEIIERLENVLAFTPDELELVAPGSIERTQVGKVKRVYDHRD”, with “not failed”; and “MWALLLRFYIALPLSVIVLLVLKTSFPTHKQALHSYFAGSFSLIGSQIFTYAATQYLSSGMIALMFGLAPIMAGLIGRFAFGQHLFKLQWLGMAVAVCGLAIICLNGSNQHVHPFGIVLMLVSVFVYSFSIFWVKKVNAKIQPMAQATGSILVSSILASCLIPFIWQYAPTHLPQAKSLFALIYTVLMASLVAMFCYFKLVQNIKPTTLSLTTVITPMLAMIIGAVLNHEQLSIMVFVGAFIILFGLFLYFYKDIQANRNFAQHIKSK”, with “failed”. Take “MWDMKFVDRIDEAARLKDALAREKSSLVVMYGRRRLGKSTLIKRVLSENDVYFLADRSEGQHQRALLAKVIAQVFPDFEKLSYPDWESMFRAVNYRTDKRFTLCLDEFPYLVEQSPELPSVLQKLVDEKQLKYNLVLCGSSQNMMYGLFLDSTAPLYGRADEIMRLTPIRLPYIQEALNLNAMNAIEEYAIWGGVPRYWELRENRISLDDAMWHNILSVNGTLYEEPVKLFQDDVKDIVKTSTIMSYIGTGANRLSEIAARCNEPATNLSRPLKKLVDLGFLEKDVPFGIDEKNAKKSLYKIADPFMAFYYQFVVPNRSFIELGRRLPIEQALTAHFSEYVSMQWEKLCRDAVTGNLVNGVVYGKAKRWWGSVLNEDKKPEQVEFDVMAESLDKKYLLVGECKWTTGENGKQLTAELLRKANLLPFAKNYTIVPVLFLKNAPKDDAGNAMLSENVVELMK”: the protein production result was “failed”.
